In paper PMC6712278, “Mouse Gut Microbiome-Encoded β-Glucuronidases Identified Using Metagenome Analysis Guided by Protein Structure” (mSystems, 2019):
Values belong to the molecule of their own block, whether it stands above or below them.

Columns and labels:
BoGUS L2 = tested on: T1, BoGUS L2; assay: p-nitrophenol release, absorbance […] nm, Michaelis-Menten fit; assay type: biochemical, Bacteroides ovatus; conditions: 50 mM HEPES, 50 mM NaCl, pH 6.5, 37°C
T1 construct: gene GUS; GH2, loop 2 class

[1] = tested on: O=C(O)[C@H]1O[C@@H](Oc2ccc([N+](=O)[O-])cc2)[C@H](O)[C@@H](O)[C@@H]1O; assay: purified protein; conditions: 37°C, at the enzyme's optimal pH (not given)
purified protein = substrate: O=C(O)[C@H]1O[C@@H](Oc2ccc([N+](=O)[O-])cc2)[C@H](O)[C@@H](O)[C@@H]1O; assay: purified protein; assay type: biochemical, Bacteroides uniformis; conditions: 37°C, at the enzyme's optimal pH (not given)

- Km (BoGUS L2): 930 ± 70 µM
Molecule: O=C(O)[C@H]1O[C@@H](Oc2ccc([N+](=O)[O-])cc2)[C@H](O)[C@@H](O)[C@@H]1O [PNPG, p-nitrophenyl-glucuronide]

Molecule: BfGUS mL1 (Bacteroides fragilis NCTC 9343)
- Km [1]: 460 ± 60 µM
- kcat [1]: 23 ± 1 s⁻¹

B1: BuGUS L2 (Bacteroides uniformis str. 3978 T3 ii) (protein)
chain: QRQTQTINDSWKFLKGECTAAADSAFDDSKWTSIHLPHTWNTDAYTEKDYYRGTGWYRRQLTLPQGWKEKQIILRLDAAGKSATIYINGKNVGEHAGGYTACSFNITPFLSFDTPNTLAVCVDNARQDIAPISGDFTFFGGIYRDVWLTAVPNQHFNLTNHGSDGLFISTPQVSEEQATLSIRGEVKNDAPEKATLELTHTIYRPDGTLLQTLKKNIQLKAGETYAFSNEATPVLKPELWTPETPRLYRVETTLRNRKTKTLLDQSNHYTAFRWFRFDGDEGFFLNGKPYKLRGICRHQDQKPIGPALTDEMHRRDFLLMKEMGANFIRISHYPQDDALLEMCDKLGMLAWEEIPIIDIVPNTPGYGDNCERNLREMIRQHYNHPSIITWGYMNEILLVTQRKYKTEAELKPVLERTLALANRLERVLKEEDSTRISTMAFHGSNSYNETGLSKITDIVGWNLYQGWYGGDLTGFEKFLAQQHQNHPTHPMIVSEYGAGSDKRLHSLHPRAFDFSIEYQQKYLEHYLPVLEDTPYICGGTHWNFIDFSSALRDESMPRINNKGLVYADRTPKDVYHYYQAAWRKDIPVLHIASRDWTDRAGVQQGNAPVYLPVKIYTNLSEVELFIDGISLGKQKTENYTATFEVPFSNRNPFLFAQGNYQGKTVQDGLRINFTPIPACLDANNLKGLELAVNVGSQCFFTSDESQLTWLPDQPYAAGSWGYIGGKEGTAQTEIQNTADGPLFQTLRNEIEGYRFDAPQGVYEIELLFTDIFRRNAGIAYQLDRNGQQENRESTFGISINGEVVEESLSPCKESGYFRALRKKYYITNDKEYIDIRFHSTSGTCFLNGIKLRNIY
notes: GH2, loop 2 class
- Km (purified protein): 520 ± 60 µM
- kcat (purified protein): 24 ± 1 s⁻¹
